Test results published in the nanobody polyreactivity screen of Harvey et al. (2022).

experiment: yeast display, Sf9 membrane polyspecificity reagent, FACS + sequencing; frameworks hold sequencing errors
Method in brief: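 Nanobodies from a synthetic yeast display library (Saccharomyces cerevisiae BJ5465), induced 36–48 hours with galactose, were stained 1 hour at 4 °C with 10% biotinylated, detergent-solubilized Sf9 membrane reagent, enriched on streptavidin microbeads, then FACS-sorted. Anti-HA (expression) and streptavidin (reagent binding) fluorescence set low and high (top ~1%) gates. Polyreactivity labels come from the gate of origin. Genes were colony-PCR amplified, MiSeq 2 × 250 sequenced and filtered by CDR length.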

Sequence | polyreactivity (PSR sort gate)
QVQLVESGGGFVQAGGSLRLSCAASGFTFFPYAMGWYRQAPGNEWELVAAISWSGGRTYYADSVKGRFTISRDNAKNTVYLHMNSLKPEDTAVYYCNARWRSGPRAYDYWGHGTQVTVSS | high polyreactivity
QVQLVESGGGFVQAGGSLRLSCAASGRIFAFYTMGWSRQAPGKEREFVAAISRSGGSTYYADSVKGRFTISRDNAKNTVYLQMNSLKPEDTAVYYCAKGGYSPKRVKYYDYWGQGTQVTVSS | low polyreactivity
QVQLVESGGGFVQAGGSLRLSCAASGRLFFIYAMGWYRQAPGKDRELVAAITGRGGRTYYADSVKGRFTISRDKPKNTVYLEMYSQKPEDTAVYYCAADSRDSYLFYYWGQGTQVTVST | high polyreactivity
QVQLVESGGGFVQAGGSLRLSCAASGRTFGHNDMGWYIQAPGKERELVATNSADGSTNYADSVKGRITISRDNEKKTVKLQMNSLKPEDTAVSYCAKDYQYVAYDYWGQGTQVTVSS | low polyreactivity
QVQLVESGGGFVQAGGSLRLSCAASGRTFIYNAMGWYRQAPGKERELVARISSGGGNTYYADSVKGRFTISRDNAKNPVYLQINSLKPEDTAVYYGAKGWRPSFSYYWGQGTQVTVSS | high polyreactivity
QVQLVESGGGFVQAGGSLRLSCAASGSIFSVNTMGWYRQAPGKERELVATIRTGDSTNYADSVTGRFTISRDNAKNTVYLQMNSLKPEDTAVDYCAAEWSSLNFDYWGQGTQVTVSS | low polyreactivity
QVQLVESGGGFVQAGGSLRLSCAASGSILRSYAMGWYRQAPGKERELVAVINGSGGRTYYADSVKGRFTISRDNAKNTVYLQMNSLKPEDTAVYYCNADPGGRYPRRGYAHEGDYWGQGTQVTVSS | low polyreactivity
QVQLVESGGGFVQAGGSLRLSCAASGSTFSHYTMGWYSQAPGNERELLAAINYGGASTYYADSVKGRFTISRDNAKNTVYLQMNSQKPEDTAVYYCAAANRPSEQDNYWGQGTQVTVSS | low polyreactivity
QVQLVESGGGFVQAGGSLRLSCAASGSTFYTYTLGWYRQAPGKERELVAAISSSGGDTYYADSVKGRFTISRDNAKNTVYLQMNSLKPEDTAVYYCAALGAFPSLEFDYWGQGTQVTVSS | low polyreactivity
QVQLVESGGGFVQAGGSLRLSCAATGSIFPQNAMGWYRQAPGKERELVASISSGGRTNYADSVKGRFTISRDYAKNTVYLQMNSLKPEDSAVYFCAKTRIRYKPLHFYYWGQGTQVTVSS | low polyreactivity
QVQLVESGGGFVQAGGSLRLSCASSGRIFYRNAMVWYRQAPGKESELVAAILGSGGRTYYADSVKGSFTISRDTAKNNVYLQMNSMKPEVTAVYYCAAYGYYVEHPRGLSGPYDDDYWGQGTQVTVSS | low polyreactivity
QVQLVESGGGFVQAGGSLRLSCASSGRTFRLYAMGWYRQAPGKERELVDVIRSGDSTNYADSVKGRFTISSDNAKNTVYLQMNSVKPEDTAVYYCAADVLYYYGKYDYWGQGTQVTVSS | high polyreactivity
QVQLVESGGGFVQAGGSLRLSSAASGRTFYFYTMLWYRQAPGKERELVAAISWSGGSTYYADSVKGRFTISRDNAKNTVYLQMNSLKPEDTAVYYCAASSPWDQSNDQFYYWGQGTQVTVSS | low polyreactivity
QVQLVESGGGFVQAGGSLRLSSAASGSTFYRYAMGWYRQAPGKEREFVAAISRSGGSTYYADSVKRRFTLSRDNAKNTVYLQMNSLKPEDTAVEYCNKYYWYPYGRAQDYGYWGQGTQVTVSS | high polyreactivity
QVQLVESGGGIDQAGGSLRLSCAATGLTFWLNPMGWYRQAPWKERELVAAIRYSGGGTYADSVKGRFTISRDNAKNTVSLQMNSLKQEVTAVYYCAALYNLGYPQFDYWGQGNQVTVSS | low polyreactivity
QVQLVESGGGILQAGGSLRLSCAASGSTFSYYAMGWYRQAPGKERELVAAISYSGGRTYYADSVKGRFTISRDNAKNTVYLQMNSLKPEDTAVYYCAASGVFDSTRGVYYWGQGTQVTVSS | high polyreactivity
QVQLVESGGGIVQAGGRLRLSCAASGFTFGKYAMGWYRQAPGKERELVAAISRSGGSTYYADSVKGRFTISRDNAKFTVYLPMNSLKPVDTAVYYCAAYHPIQEYDYWGQGTQVTGSS | high polyreactivity
QVQLVESGGGIVQAGGRLRLSCAASGSTFPSKAMGWYRQAPGKERELVAAISRGGTTNYADSVKGRFTISRDNAKNTVYLQMNSLKPEDTAVYYCAKVYKLYWYKAYRRDYWGQGTQVTVSS | high polyreactivity
QVQLVESGGGIVQAGGSHRLSCAASGRTFRYNAMGWYRQAPGKERELVAAISGRGSSTYYADSVKGRFTISRDNAKNTVYLQMNSLKPEDTAVYYCAALPASVRRPGWHDYWGQGTQVTVSS | high polyreactivity
QVQLVESGGGIVQAGGSLLLSCAASGSISFLYTMGWYRQAPGKERELVAAITGSTASTYYADSVKGRFTISRDNAKNTVYLQMNSLKPEDTAVYYCAAYWYAEGYWVSRDYWGQGTQVTVSS | low polyreactivity
QVQLVESGGGIVQAGGSLLLSCPASGRIFGVYAMGWYRQAPGKERELVAGINGGDSTYYADSVKGRFTISRDNAKNTVYLQMNSLKPEDTAVYYCAAEADESGSNYDYWGQGSQVTVSS | low polyreactivity
QVQLVESGGGIVQAGGSLRISSAASGSIFGYYAMGWYIQEPGKERELVADITVRGGSTYYADSVKGRFTISRDNAKNTVYLQMNSLKPEDTAVYYCAAAQYTFWDGDSWGQGTQVTVSS | high polyreactivity
QVQLVESGGGIVQAGGSLRLICAASGIIFPVYAMGWYRPAPGKERELVAAISRSGGSTYYADSVKGRFTISRDHAKNTVYLQMNSLKPEDTAVYYCAARYVVGYSLSSYGYWGQGTQVTVSS | high polyreactivity
QVQLVESGGGIVQAGGSLRLLCAASGRNIINYDMGWYRQAPGKERELVAAITWSTGSTYADSVNGRFTISRDNAKNTVYLQMNSLSPEDTAVYYCAAPWGQTDDRHQGGDYWGQGTQVTVSS | low polyreactivity
QVQLVESGGGIVQAGGSLRLSCAASGFIFKRYAMGWYRQAPGKERELVAAITTSGGRTYYADSVKGRFTISRDNAKNTVYLLMNSLKPEDTAVYYCNADYGTYWWPYYYWGQGTQVTVSS | high polyreactivity
QVQLVESGGGIVQAGGSLRLSCAASGFTFGLYAMGWYRQAPGKERELVAVISSSGGSTYYADSVKGRFTISRDNAKNTVYLQMNSLKPEDTAVYYCAAEWHDYKFDVTYDYWGQVTQVTVSS | low polyreactivity
QVQLVESGGGIVQAGGSLRLSCAASGFTFGSNAMGWYRQAPGKERELVAAISRSSGRTYYADSVKGRFTISRDNAKNNVYLHMNSLKQEDTAVYYCDAQTPYRISLQYYYWGQGTQVTVSS | high polyreactivity
QVQLVESGGGIVQAGGSLRLSCAASGFTFGSYAMGWYRQAPGKEREFVAAIRRSGSSTYYADSVKGRFTISRDNAKNTVYLQMNSLKPEDTAVYYCAADVYRRLRRYRYYYWGQGTQVTVSS | low polyreactivity
QVQLVESGGGIVQAGGSLRLSCAASGFTFYYNAMGWYRQAPGKERELVAAISYRGGSTYYADSVKGRFTISRDNAKNTVYFQMNSLKPEDTAVYYCATRDPAFYRRYDYWGQATQVTVSS | high polyreactivity
QVQLVESGGGIVQAGGSLRLSCAASGGIFYRNAMGWYRQAPGKERELVAAISWRGGSTYYADSVKGRFTNSRDNAKNTVYLQMNSLKPEDTAVYFCAARSVATYRYDYWGQGTQVTVSS | high polyreactivity
